± gives the standard error. For some of these results: Fewer inactive variants are shown than the library holds. A value given as a limit tells only on which side of the number the result lay.

B1: glmS ribozyme (parent)
chain: AUAAAAGCGCCAGAACUACAGAAAUGUAGUUGACGAGGAGGAGGUUUAUCGAAUUUUCGGCGGAUGCCUCCAAA

What all share (conditions): with glucosamine-6-phosphate
Data set [1] covers variants of B1. The data set can be described thus: kcat; higher = faster cleavage; RNA array. In outline: (§1)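 Tiles of sequenced MiSeq chips were imaged over ~14 h at 37 °C. On them, barcoded ribozyme variants had been transcribed in situ by E. coli RNA polymerase and were tracked via a hybridised Cy3 probe while glucosamine-6-phosphate (40 μM to 10 mM) in HEPES/KCl/Mg(OAc)2 buffer flowed in. Per-tile medians, normalised to baseline and to non-cleaving reference variants, were fit to one- or two-exponential decays for kobs, and weighted Michaelis–Menten fits gave kcat and KM.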

The variants in data set [2] derive from B1. The data set can be described thus: self-cleavage kobs at 640 uM GlcN6P; higher = faster cleavage; RNA array. Summed up:
as §1

Data set [3] covers variants of B1. The data set can be described thus: self-cleavage kobs at 2500 uM GlcN6P; higher = faster cleavage; RNA array. In outline: as §1
In data set [4] the parent is B1. The data set can be described thus: self-cleavage kobs at 10000 uM GlcN6P; higher = faster cleavage; RNA array. Summed up: as §1
In data set [5] the parent is B1. The data set can be described thus: self-cleavage kobs at 160 uM GlcN6P; higher = faster cleavage; RNA array. Summed up:
as §1

The variants in data set [6] derive from B1. The experiment in a line: KM; higher = weaker cofactor use; RNA array. Summed up: as §1
The variants in data set [7] derive from B1. The experiment in a line: self-cleavage kobs at 40 uM GlcN6P; higher = faster cleavage; RNA array. Summed up:
as §1

As usually defined, the kcat is the maximal rate divided by the concentration of active sites. Regarding G44U G66A, the kcat in data set [1] stood at 0.000401 ± 9.1e-05 s⁻¹. Moreover, the “self-cleavage kobs at 640 uM GlcN6P” value in data set [2] stood at 0.000153 ± 3.3e-05 s⁻¹. The “self-cleavage kobs at 2500 uM GlcN6P” value in data set [3] was 0.000236 ± 4.4e-05 s⁻¹. In data set [4], the “self-cleavage kobs at 10000 uM GlcN6P” value came to 0.000438 ± 0.0001 s⁻¹.

U69G C70U: in data set [1], the kcat was determined as 4.03e-05 ± 6.8e-06 s⁻¹. For the same variant, the “self-cleavage kobs at 160 uM GlcN6P” value in data set [5] amounted to 4.73e-05 ± 1.4e-05 s⁻¹. Moreover, the “self-cleavage kobs at 640 uM GlcN6P” value in data set [2] stood at 4.66e-05 ± 9.6e-06 s⁻¹. Also, in data set [3], the “self-cleavage kobs at 2500 uM GlcN6P” value amounted to 5.03e-05 ± 8.5e-06 s⁻¹. The “self-cleavage kobs at 10000 uM GlcN6P” value in data set [4] is 2.88e-05 ± 6.8e-06 s⁻¹.

Regarding U31G G37U C68A, the kcat in data set [1] came out at 2.76e-05 ± 6.9e-06 s⁻¹.

For orientation: KM means the substrate concentration at which the rate is half of its maximum. On to U47C, for which the kcat in data set [1] is 0.00454 ± 0.0006 s⁻¹. The KM in data set [6] was determined as 1380 ± 250 µM. The “self-cleavage kobs at 40 uM GlcN6P” value in data set [7] was found to be 0.000129 ± 2.6e-06 s⁻¹. The “self-cleavage kobs at 160 uM GlcN6P” value in data set [5] worked out at 0.000428 ± 1.8e-05 s⁻¹. The “self-cleavage kobs at 640 uM GlcN6P” value in data set [2] was found to be 0.00142 ± 4.2e-05 s⁻¹. The “self-cleavage kobs at 2500 uM GlcN6P” value in data set [3] was determined as 0.00412 ± 0.00014 s⁻¹. In addition, the “self-cleavage kobs at 10000 uM GlcN6P” value in data set [4] worked out at 0.00375 ± 9.2e-05 s⁻¹.

For the variant U47A, the kcat in data set [1] is 0.0447 ± 0.0064 s⁻¹. The KM in data set [6] was 2150 ± 360 µM. For the same variant, in data set [7], the “self-cleavage kobs at 40 uM GlcN6P” value was 0.00084 ± 1.5e-05 s⁻¹. The “self-cleavage kobs at 160 uM GlcN6P” value in data set [5] came out at 0.00266 ± 0.00018 s⁻¹. Also, the “self-cleavage kobs at 640 uM GlcN6P” value in data set [2] is 0.00994 ± 0.00044 s⁻¹. The “self-cleavage kobs at 2500 uM GlcN6P” value in data set [3] is 0.0201 ± 0.0011 s⁻¹. In addition, the “self-cleavage kobs at 10000 uM GlcN6P” value in data set [4] amounted to 0.0412 ± 0.0016 s⁻¹.

As to A15U U47C, in data set [1], the kcat stood at 0.00038 ± 5e-05 s⁻¹. Further, the KM in data set [6] is 862 ± 310 µM. Besides, the “self-cleavage kobs at 160 uM GlcN6P” value in data set [5] came out at 5.24e-05 ± 1.3e-05 s⁻¹. Besides, the “self-cleavage kobs at 640 uM GlcN6P” value in data set [2] was found to be 0.00024 ± 7.3e-05 s⁻¹. In addition, the “self-cleavage kobs at 2500 uM GlcN6P” value in data set [3] stood at 0.00036 ± 5e-05 s⁻¹. In addition, the “self-cleavage kobs at 10000 uM GlcN6P” value in data set [4] is 0.000325 ± 3.4e-05 s⁻¹.

Consider G13U U31C, for which, in data set [1], the kcat amounted to 0.000427 ± 1.8e-05 s⁻¹. The KM in data set [6] stood at 1040 ± 110 µM. In data set [5], the “self-cleavage kobs at 160 uM GlcN6P” value turned out to be 4.8e-05 ± 2.1e-05 s⁻¹. Besides, in data set [2], the “self-cleavage kobs at 640 uM GlcN6P” value was found to be 0.00017 ± 2.8e-05 s⁻¹. Further, the “self-cleavage kobs at 2500 uM GlcN6P” value in data set [3] was 0.000297 ± 3.8e-05 s⁻¹. Further, the “self-cleavage kobs at 10000 uM GlcN6P” value in data set [4] was 0.000387 ± 5.1e-05 s⁻¹.

As for U46G C67A, the kcat in data set [1] came out at 0.00184 ± 0.00032 s⁻¹. The KM in data set [6] amounted to 818 ± 220 µM. Further, the “self-cleavage kobs at 40 uM GlcN6P” value in data set [7] was 0.000105 ± 1.1e-05 s⁻¹. For the same variant, in data set [5], the “self-cleavage kobs at 160 uM GlcN6P” value worked out at 0.000224 ± 3.9e-05 s⁻¹. For the same variant, the “self-cleavage kobs at 640 uM GlcN6P” value in data set [2] was determined as 0.000783 ± 0.0001 s⁻¹. Moreover, the “self-cleavage kobs at 2500 uM GlcN6P” value in data set [3] is 0.00146 ± 0.00022 s⁻¹. Moreover, in data set [4], the “self-cleavage kobs at 10000 uM GlcN6P” value was 0.00173 ± 0.00021 s⁻¹.

Consider U31A U69A, for which the kcat in data set [1] was 0.000105 ± 2.5e-05 s⁻¹. The “self-cleavage kobs at 160 uM GlcN6P” value in data set [5] was found to be 7.05e-05 ± 1.9e-05 s⁻¹. Further, the “self-cleavage kobs at 640 uM GlcN6P” value in data set [2] was 7.66e-05 ± 2.3e-05 s⁻¹. In data set [3], the “self-cleavage kobs at 2500 uM GlcN6P” value is 0.000163 ± 2.9e-05 s⁻¹. The “self-cleavage kobs at 10000 uM GlcN6P” value in data set [4] stood at 7.86e-05 ± 2.1e-05 s⁻¹.

A14U C61A C70A: in data set [1], the kcat was found to be 1.21e-05 ± 3.3e-06 s⁻¹.

On to A6C G29C, for which the kcat in data set [1] is less than 1e-05 s⁻¹. In data set [5], the “self-cleavage kobs at 160 uM GlcN6P” value was less than 1e-05 s⁻¹.

C58A A64G: the kcat in data set [1] came out at 0.000405 ± 6.2e-05 s⁻¹. Further, in data set [6], the KM came out at 1920 ± 510 µM. Besides, the “self-cleavage kobs at 160 uM GlcN6P” value in data set [5] worked out at 3.91e-05 ± 1.1e-05 s⁻¹. Further, in data set [2], the “self-cleavage kobs at 640 uM GlcN6P” value was 0.0001 ± 1.5e-05 s⁻¹. For the same variant, the “self-cleavage kobs at 2500 uM GlcN6P” value in data set [3] is 0.000214 ± 2.8e-05 s⁻¹. The “self-cleavage kobs at 10000 uM GlcN6P” value in data set [4] came to 0.000399 ± 8.1e-05 s⁻¹.

As to A14G U31C C71A, the kcat in data set [1] turned out to be 0.00296 ± 0.00085 s⁻¹. Also, the KM in data set [6] came out at 1430 ± 590 µM. Besides, the “self-cleavage kobs at 40 uM GlcN6P” value in data set [7] was determined as 0.000143 ± 6.1e-05 s⁻¹. In addition, in data set [5], the “self-cleavage kobs at 160 uM GlcN6P” value stood at 0.000251 ± 7.7e-05 s⁻¹. For the same variant, the “self-cleavage kobs at 2500 uM GlcN6P” value in data set [3] is 0.00227 ± 0.00096 s⁻¹. Moreover, the “self-cleavage kobs at 10000 uM GlcN6P” value in data set [4] stood at 0.00241 ± 0.00085 s⁻¹.

In the case of G29U G43A, in data set [1], the kcat is less than 1e-05 s⁻¹. The “self-cleavage kobs at 40 uM GlcN6P” value in data set [7] was less than 1e-05 s⁻¹. Further, in data set [5], the “self-cleavage kobs at 160 uM GlcN6P” value was less than 1e-05 s⁻¹.

For the variant G41U A53U, in data set [1], the kcat was 0.00104 ± 0.00026 s⁻¹. Besides, in data set [6], the KM stood at 889 ± 390 µM. Also, the “self-cleavage kobs at 40 uM GlcN6P” value in data set [7] is 9.28e-05 ± 2e-05 s⁻¹. Further, the “self-cleavage kobs at 160 uM GlcN6P” value in data set [5] was found to be 0.000145 ± 2.2e-05 s⁻¹. The “self-cleavage kobs at 640 uM GlcN6P” value in data set [2] worked out at 0.000413 ± 8.1e-05 s⁻¹. The “self-cleavage kobs at 2500 uM GlcN6P” value in data set [3] came out at 0.000697 ± 0.0001 s⁻¹. Moreover, the “self-cleavage kobs at 10000 uM GlcN6P” value in data set [4] amounted to 0.00119 ± 0.00021 s⁻¹.
